# Measurements taken from a protein production outcome set (Wang et al. 2014).
# Assay: label from the status in PepcDB records
row,Sequence,protein production
1,MYPLAFAKEGEEVIVKKIDAGCGAMQRLVSMGINIGSKLKVIRNQNGPVIISTKGSNIAIGRGLAMKIMVEDAEYGGENEKLLEHHHHHH,failed
2,MVHDTFMKMPEVRRRRQPTHVLVAGGNQGLGNMTAFLRAARTSTLFRYSVLCGANKQLYHEIASWQLPHIRPLPYINSPEEMNQLYDEADAVITKPGGVTISELLHKRIPIFTIDCLPGQERINWQYLRRNGLIYHLAEPGNGERKMIRLLTDDVEKNRFFRRVSDYFAGVEKTGLEHHHHHH,failed
3,MIQEIASILVQPGREADFEAGVAQARPLFMRARGCHGVALHRSIEAPQRYTLVVDWETVDNHMVDFRQSADFQEWRKLVGECFAEPPQVHHEQKVL,not failed
4,MGSSHHHHHHSSGENLYFQGHMIYPYKGKTPQIAASAFIADYVTITGDVVIGEETSIWFNTVIRGDVAPTVIGNRVNIQDNSILHQSPNNPLIIEDGVTVGHQVILHSAIVRKNALIGMGSIILDRAEIGEGAFIGAGSLVPPGKKIPPNTLALGRPAKVVRELTEDDIREMERIRREYVEKGQYYKALQQQRTSCADKKELP,not failed
5,METLHPFSHLPISDHRFVVQEMVSLHSSSSGSWTKEENKMFERALAIYAEDSPDRWFKVASMIPGKTVFDVMKQYSKLEEDVFDIEAGRVPIPGYPAASSPLGFDTDMCRKRPSGARGSDQDRKKGVPWTEEEHRRFLLGLLKYGKGDWRNISRNFVVSKTPTQVASHAQKYYQRQLSGAKDKRRPSIHDITTGNLLNANLNRSFSDHRDILPDLGFIDKDDTEEGVIFMGQNLSSENLFSPSPTSFEAAINFAGENVFSAGA,failed
6,MMIMNNFDEKKLIQEFSKIQSELSPRIKLENNFQIEEIQFIAGVDLAYWNVNKTKYGTCCIVIIDYGTKEVVEKVYSYGEIPIPYIPGFLAFRELPLIIEAVKKLTKQPDIYFFDGNGYLHYRHMGIATHASFLLNKPTIGVAKSYLKIRDVDFIMPENLKGSYTDIVINNEVYGRTLRTTKNVKPIFVSCGNWIDLDTSTEIVMNCINNESRLPIPVRLADLETHKMRKKLMEGLEHHHHHH,failed
7,MTELTILLGLAAAGYGVSHWTQLPAIPFLLMGGLALNATGAVGDAGFVEDVLFLSVSILLFVAGTDLSLTRVGPFKKTAFVIGVAQFAGLAAAALGIAYGLDYALTDALYLGLALAASSTIVGVRLLQRRQQMFEPYGRTVLGALLLQDVIVVLLLPLLVRLPDGSAAVLGSLGGTIVLLVGVGVVMKGVVPLLLKRELDAETQLLAVLGVLFGFMGAAAWLDVPLFAAAFLAGVSLSGFPFSGIVHSEMQPLYDFFSALFFASLGVAAPQPAPVLFGHAALFAGAVLVLTPLIVAVVGAWAGLVAQSALESGLLLAQTSELSLVVGLQALVAGQIGGEVFSVIVLTTVFTMMLTPLLTSETVVWELVRWHPSRQSDVLSEVPSNHVLVVGGGRSARPLLRLLRESKYEAVVVDEDPTVVDRLRDQGVRCVRGDGSDRAVLLKAGGAQARIVVSLLRNPKAVESLLDYVGDTVPILVRVFEDHEAEWVEARGGTPIRFAHAASDAFMEWFRRAQSARSKQPPSGT,failed
8,AITLTCDEIEQAFLHDHIFNYYQPQFDFRSGAMVGVEALVRYEHPTHGMLSPAVFLPLIEQCGLHEKLFLTVLEKSVSALASIGADLQLSVNISQRNLQHSICDPILAICERYGFPASKLTLEMTEHEVYNGTPTSLANLARLRMYGVGLSIDDFGTGYASLGQLAQLPFTELKIDRSFVHDLATNYKHQQLTNMCLLLAQSLGLHCVVEGVENEETWQYLRQLGVDTCQGYYAAKP,failed
9,QNRIDMAMMRGRCGLWDWNMASGRVYWSRAMYEMLGYIPQDALLSISQITAIINPNDANFFDLAQELMSGKKKHIDINVPMRHADGHYVWMRIRAEVTDEEELHLVGIAFDIS,failed
10,MSDVSTQSPKVGFVSLGCPKALVDSEQIITQLRAEGYEISGTYGGADLVVVNTCGFIDEAVQESLDAIGEALAENGKVIVTGCLGAKKDAAGQDIITSVHPKVLAVTGPHALGEVMEAVHTHLPKPHDPFIDLVPPQGIKLTPKHYAYLKISEGCNHRCSFCIIPSMRGDLVSRPVAEVMLEAENLLKAGVKELLVISQDTSAYGVDVKFRTGFWNGRPLKTRMTELVGALGELAAQYGAWVRLHYVYPYPSVDEVMPLMAEGKVLPYLDVPLQHAHPEVLKRMKRPANAEKTLDRIRAWREVCPELTIRSTFIAGFPGETEEEFQTLLDFIAEAELDRVGCFAYSPVEGATANDLPGALPDEVREERRARFMEVAERVSARRLQRKVGKTLRVLVDEVNQDGGIGRSSADAPEIDGLVYIAPPSKPYKRYKAGDFVSVKITGADGHDLWGEVLEHHHHHH,failed
